The values that follow are results of earlier work, collected in PMC2787657.

pKd: −log10 of the molar value. Where two headings read alike, the source gives them in different places.

In series [1] the target is CI-MPR cytoplasmic domain (Homo sapiens) (UniProt P11717).
The target is the same in series [2]. The source holds these as a separate data set.

UniProt P11717, sequence (P11717 2328-2491): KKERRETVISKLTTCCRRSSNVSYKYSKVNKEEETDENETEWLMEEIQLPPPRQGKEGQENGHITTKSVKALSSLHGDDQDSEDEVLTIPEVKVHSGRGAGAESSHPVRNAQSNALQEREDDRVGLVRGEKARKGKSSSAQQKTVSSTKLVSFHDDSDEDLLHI

What is called pKd is the Kd on a negative log10 scale, so that one unit is a factor of ten. For the substance TIP47 (from UniProt O60664), the negative-log Kd (pKd) in series [1] is 6.05; in series [2] it was 6.52.
